The record followed here is the supplement of paper PMC9112550, “Optimization of the antimicrobial peptide Bac7 by deep mutational scanning” (BMC Biology, 2022).

In this data set the test system is Escherichia coli TOP10. The experiment in a line: shrunken log2 fold change of peptide-encoding DNA abundance (4.5 h post-induction vs induction); higher = less antimicrobial activity (less host growth inhibition). As to conditions: time post-induction: 4.5 h; library: site-saturation at positions 5, 18, 19, 20.
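Note: peptides expressed intracellularly from a pBAD plasmid library in pooled LB shake-flask culture, induced with 0.3% L-arabinose, DNA abundance read by NGS, three biological replicates, DESeq2 with apeglm shrinkage.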

Consider RRIRNRPPRLPRPRPRPPNCPRP, for which the “shrunken log2 fold change” value was found to be 0.00301.

Take RRIRSRPPRLPRPRPRPGRGPRP: the “shrunken log2 fold change” value was 0.715.

For RRIRLRPPRLPRPRPRPIVDPRP, the “shrunken log2 fold change” value is -0.103.

On to RRIRTRPPRLPRPRPRPPLDPRP, for which the “shrunken log2 fold change” value turned out to be 0.148.

As for RRIRSRPPRLPRPRPRPPQRPRP, the “shrunken log2 fold change” value came to 0.451.

On to RRIRERPPRLPRPRPRPGRCPRP, for which the “shrunken log2 fold change” value came out at 0.0675.

In the case of RRIRFRPPRLPRPRPRPIITPRP, the “shrunken log2 fold change” value was -0.5.

For RRIRSRPPRLPRPRPRPFAVPRP, the “shrunken log2 fold change” value is -0.113.

For RRIRRRPPRLPRPRPRPWNDPRP, the “shrunken log2 fold change” value is -0.345.

Regarding RRIRERPPRLPRPRPRPYPRPRP, the “shrunken log2 fold change” value was -0.00133.

For RRIRCRPPRLPRPRPRPFDEPRP, the “shrunken log2 fold change” value is -0.0888.

For RRIRSRPPRLPRPRPRPEEIPRP, the “shrunken log2 fold change” value was -0.00908.

For RRIRQRPPRLPRPRPRPHLDPRP, the “shrunken log2 fold change” value was -0.0359.

With RRIRSRPPRLPRPRPRPVFNPRP, the “shrunken log2 fold change” value is -0.709.

With RRIRFRPPRLPRPRPRPRLYPRP, the “shrunken log2 fold change” value was -0.014.

Consider RRIRPRPPRLPRPRPRPSVTPRP, for which the “shrunken log2 fold change” value is -0.385.

With RRIRERPPRLPRPRPRPDFDPRP, the “shrunken log2 fold change” value was -0.356.

On to RRIRARPPRLPRPRPRPGIGPRP, for which the “shrunken log2 fold change” value stood at 0.524.

Turning to RRIRKRPPRLPRPRPRPWALPRP, the “shrunken log2 fold change” value is -0.0102.

RRIRERPPRLPRPRPRPPDGPRP: the “shrunken log2 fold change” value was 0.0068.

As for RRIRERPPRLPRPRPRPMCDPRP, the “shrunken log2 fold change” value was -0.212.

Take RRIRGRPPRLPRPRPRPMLLPRP: the “shrunken log2 fold change” value came out at 0.548.

In the case of RRIRHRPPRLPRPRPRPIVLPRP, the “shrunken log2 fold change” value is 0.00695.

For RRIRDRPPRLPRPRPRPMCAPRP, the “shrunken log2 fold change” value is 0.0829.

For the sequence RRIRNRPPRLPRPRPRPKLMPRP, the “shrunken log2 fold change” value was -0.109.

RRIRFRPPRLPRPRPRPHDVPRP: the “shrunken log2 fold change” value is -0.00911.

Consider RRIRDRPPRLPRPRPRPRLIPRP, for which the “shrunken log2 fold change” value is -0.189.

Turning to RRIRKRPPRLPRPRPRPRSKPRP, the “shrunken log2 fold change” value was 0.254.

On to RRIRDRPPRLPRPRPRPIEKPRP, for which the “shrunken log2 fold change” value is -0.0135.

For RRIRVRPPRLPRPRPRPHNFPRP, the “shrunken log2 fold change” value was -0.418.

In the case of RRIRKRPPRLPRPRPRPFAYPRP, the “shrunken log2 fold change” value was 0.0165.

Take RRIRQRPPRLPRPRPRPTGMPRP: the “shrunken log2 fold change” value was determined as 0.475.

As for RRIRVRPPRLPRPRPRPYMLPRP, the “shrunken log2 fold change” value was -0.71.

For the sequence RRIRNRPPRLPRPRPRPAWVPRP, the “shrunken log2 fold change” value was found to be 0.147.

For RRIRERPPRLPRPRPRPDQTPRP, the “shrunken log2 fold change” value was -0.00664.

RRIRQRPPRLPRPRPRPLKSPRP: the “shrunken log2 fold change” value amounted to 0.138.

Consider RRIRFRPPRLPRPRPRPGTQPRP, for which the “shrunken log2 fold change” value was -0.0219.

Turning to RRIRNRPPRLPRPRPRPKILPRP, the “shrunken log2 fold change” value worked out at 0.0428.

For RRIRSRPPRLPRPRPRPNMNPRP, the “shrunken log2 fold change” value was -0.573.

Turning to RRIRDRPPRLPRPRPRPRAGPRP, the “shrunken log2 fold change” value was 0.741.

For the sequence RRIRFRPPRLPRPRPRPMWWPRP, the “shrunken log2 fold change” value is 0.0551.

On to RRIRSRPPRLPRPRPRPNLCPRP, for which the “shrunken log2 fold change” value is -0.0929.

Take RRIRLRPPRLPRPRPRPRAQPRP: the “shrunken log2 fold change” value came to 0.423.

As to RRIRQRPPRLPRPRPRPFLFPRP, the “shrunken log2 fold change” value is -0.288.

As to RRIRLRPPRLPRPRPRPSCEPRP, the “shrunken log2 fold change” value is -0.0674.

As to RRIRIRPPRLPRPRPRPYAMPRP, the “shrunken log2 fold change” value was -0.411.

Take RRIRYRPPRLPRPRPRPKKKPRP: the “shrunken log2 fold change” value was -0.104.

With RRIRPRPPRLPRPRPRPDTAPRP, the “shrunken log2 fold change” value is -0.0311.

In the case of RRIRERPPRLPRPRPRPLIIPRP, the “shrunken log2 fold change” value is -1.

For the sequence RRIRYRPPRLPRPRPRPDKAPRP, the “shrunken log2 fold change” value amounted to 0.0133.

Turning to RRIRRRPPRLPRPRPRPELWPRP, the “shrunken log2 fold change” value was found to be 0.518.

As to RRIRTRPPRLPRPRPRPYEKPRP, the “shrunken log2 fold change” value was -0.657.

Consider RRIRMRPPRLPRPRPRPGSHPRP, for which the “shrunken log2 fold change” value was found to be 0.0978.

Consider RRIRNRPPRLPRPRPRPRMNPRP, for which the “shrunken log2 fold change” value worked out at 0.00678.

Turning to RRIRIRPPRLPRPRPRPPCTPRP, the “shrunken log2 fold change” value is -0.332.

As to RRIRWRPPRLPRPRPRPCGNPRP, the “shrunken log2 fold change” value turned out to be 0.0696.

Regarding RRIRPRPPRLPRPRPRPYREPRP, the “shrunken log2 fold change” value is -0.073.

As for RRIRNRPPRLPRPRPRPELEPRP, the “shrunken log2 fold change” value turned out to be 0.47.

For the sequence RRIRFRPPRLPRPRPRPRDMPRP, the “shrunken log2 fold change” value is -0.128.

As for RRIRRRPPRLPRPRPRPFPYPRP, the “shrunken log2 fold change” value is -0.28.

Take RRIRVRPPRLPRPRPRPAMVPRP: the “shrunken log2 fold change” value was determined as 0.118.

In the case of RRIRGRPPRLPRPRPRPYPHPRP, the “shrunken log2 fold change” value came to 0.103.

With RRIRQRPPRLPRPRPRPVKVPRP, the “shrunken log2 fold change” value was -0.00987.

RRIRQRPPRLPRPRPRPLCAPRP: the “shrunken log2 fold change” value was 0.172.

Turning to RRIRARPPRLPRPRPRPGKWPRP, the “shrunken log2 fold change” value came to 0.19.

For the sequence RRIRNRPPRLPRPRPRPAEQPRP, the “shrunken log2 fold change” value is -0.018.

Take RRIRCRPPRLPRPRPRPWWSPRP: the “shrunken log2 fold change” value came to 0.119.

Take RRIRVRPPRLPRPRPRPLTGPRP: the “shrunken log2 fold change” value was -0.396.

In the case of RRIRLRPPRLPRPRPRPWREPRP, the “shrunken log2 fold change” value was -0.018.

With RRIRWRPPRLPRPRPRPNLHPRP, the “shrunken log2 fold change” value is -0.269.

Take RRIRRRPPRLPRPRPRPSTWPRP: the “shrunken log2 fold change” value was found to be 0.00308.

On to RRIRARPPRLPRPRPRPAEDPRP, for which the “shrunken log2 fold change” value was determined as 1.19.

Take RRIRPRPPRLPRPRPRPRTVPRP: the “shrunken log2 fold change” value worked out at 0.322.

For the sequence RRIRKRPPRLPRPRPRPVNGPRP, the “shrunken log2 fold change” value amounted to 0.0996.

Regarding RRIRFRPPRLPRPRPRPREIPRP, the “shrunken log2 fold change” value was 0.0702.

Turning to RRIRYRPPRLPRPRPRPTKAPRP, the “shrunken log2 fold change” value is -0.0298.

For RRIRERPPRLPRPRPRPCFCPRP, the “shrunken log2 fold change” value was -0.318.

Turning to RRIRARPPRLPRPRPRPHRLPRP, the “shrunken log2 fold change” value was -0.0138.

For RRIRKRPPRLPRPRPRPPAQPRP, the “shrunken log2 fold change” value amounted to 0.698.

For RRIRPRPPRLPRPRPRPEHTPRP, the “shrunken log2 fold change” value was -0.112.

With RRIRTRPPRLPRPRPRPTWWPRP, the “shrunken log2 fold change” value came out at 0.538.

Consider RRIRSRPPRLPRPRPRPFNNPRP, for which the “shrunken log2 fold change” value is -0.458.

Regarding RRIRSRPPRLPRPRPRPQSWPRP, the “shrunken log2 fold change” value amounted to 0.722.

In the case of RRIRGRPPRLPRPRPRPWMSPRP, the “shrunken log2 fold change” value amounted to 0.0647.

With RRIRQRPPRLPRPRPRPIGTPRP, the “shrunken log2 fold change” value stood at 0.0722.

On to RRIRKRPPRLPRPRPRPIAHPRP, for which the “shrunken log2 fold change” value amounted to 0.143.

In the case of RRIRGRPPRLPRPRPRPQDGPRP, the “shrunken log2 fold change” value was 0.0108.

Take RRIRRRPPRLPRPRPRPFSLPRP: the “shrunken log2 fold change” value amounted to 0.0919.

Consider RRIRFRPPRLPRPRPRPLYGPRP, for which the “shrunken log2 fold change” value was -0.303.

RRIRVRPPRLPRPRPRPSPVPRP: the “shrunken log2 fold change” value is 0.216.

In the case of RRIRFRPPRLPRPRPRPIYQPRP, the “shrunken log2 fold change” value was -0.21.
